# Measured values: US20200397816A1, “METHODS TO TREAT INFLAMMATORY AND SMOOTH MUSCLE CELL PROLIFERATION DISORDERS” (THE TRUSTEES OF INDIANA UNIVERSITY, priority 2019, published 2020)
# Entries after “also recorded” stand apart in the source; their conditions may differ.
# Assays:
# EGR1 = EGR1 protein western blot (whole cell lysates, nuclear fractions) in RAW 264.7 macrophages; assay type: cell-based, mouse; details: macrophages
# Description: (§1) RAW 264.7 (ATCC) mouse macrophages and Human Embryonic Kidney (HEK) 293T cells were cultured in DMEM media with 10% fetal bovine serum […] and glutamine HEPES buffer and beta-mercaptoethanol were added to the growth medium used for RAW 264.7 macrophages. Primary human pulmonary artery smooth muscle cells (hPASMC) purchased from Lonza (Walkersville, Md.) were cultured in complete growth medium containing smooth muscle growth media-2 (SmGM-2) with 10% FBS and growth factors provided as a kit by the supplier (Lonza, (Walkersville, Md.). THP-1 human monocyte cells were cultured in RPMI 1640 with 10% FBS and glutamine Cells were cultured in a humidified atmosphere with 5% CO2 at 370 C. For all studies passages 5-14 were used for RAW 264.7 and passages 5-10 were used for hPASMCs. For treatment studies, subconfluent cells plated in multi-well plates were serum starved and if required, pretreated for with inhibitors before stimulating with 2 μg/mL recombinant EMAP II.
# (§2) After appropriate treatments, protein lysates were prepared by using RIPA buffer supplemented with phosphatase and protease inhibitors (Thermo Fischer Scientific). Alpha-tubulin was used as a loading control. For nuclear and cytoplasmic fractionation, NE-PER kit from Thermo Fischer Scientific was used. Western blots were performed according to standard methods and quantified using densitometry using Image Studio Lite software from LI-COR Biosciences.
# RAW 264.7 (ATCC) mouse macrophages and HEK-293T (ATCC) cells were cultured in DMEM media with 10% (v/v) fetal bovine serum (FBS) and 2 mM glutamine HEPES buffer and beta-mercaptoethanol were added to the growth medium used for RAW 264.7 macrophages. Primary human pulmonary artery smooth muscle cells (hPASMC) purchased from Lonza (Walkersville, Md.) were cultured in complete growth medium containing smooth muscle growth media-2 (SmGM-2) with 10% FBS and growth factors provided as a kit by the supplier (Lonza, (Walkersville, Md.). THP-1 human monocyte cells were cultured in RPMI 1640 with 10% FBS and glutamine Cells were cultured in a humidified atmosphere with 5% CO2 at 37° C. For all studies passages 5-14 were used for RAW 264.7 and passages 5-10 were used for hPASMCs. For treatment studies, subconfluent cells plated in multi-well plates were serum starved and if required, pretreated with inhibitors before stimulation with 2 μg/mL recombinant EMAP II.
# as §2, with “Fisher” for “Fischer”, “For nuclear and cytoplasmic fractionation, NE-PER kit from Thermo Fischer Scientific was used.” left out
# SphK1 = SphK1 transcripts qRT-PCR in RAW 264.7 macrophages; assay type: cell-based, mouse
# Description: RAW 264.7 (ATCC) mouse macrophages and Human Embryonic Kidney (HEK) 293T cells were cultured in DMEM media with 10% fetal bovine serum […] and glutamine HEPES buffer and beta-mercaptoethanol were added to the growth medium used for RAW 264.7 macrophages. […]
# Total RNA was extracted with TriZol using standard RNA extraction protocol and reverse transcribed with SuperScript III Reverse Transcriptase (Thermo Fischer Scientific). SphK1, Tnf, Il6, EGR1, Gapdh, Hprt1 transcripts were quantified using PrimePCR SYBR Green assays from BioRad. […]
# Total RNA was extracted with TriZol using standard RNA extraction protocol and reverse transcribed with SuperScript III Reverse Transcriptase (Thermo Fisher Scientific). SPHK1, Tnf, Il6, EGR1, Gapdh, Hprt1 transcripts were quantified using PrimePCR SYBR Green assays from BioRad.
# pSTAT3 (Y705) = experiment: EMAP II induced pSTAT3 western blot in RAW 264.7 macrophages; assay type: cell-based, mouse; details: macrophages; EMAP II 24 hours
# Description: as §2
# as §2, with “(Thermo Fisher” for “(Thermo Fischer”
# pERK1/2 = pERK1/2 western blot time course in hPASMC; assay type: cell-based, human; details: SMCs
# Description: as §1, §2
# (§3) RAW 264.7 (ATCC) mouse macrophages and HEK-293T (ATCC) cells were cultured in DMEM media with 10% (v/v) fetal bovine serum (FBS) and 2 mM glutamine HEPES buffer and beta-mercaptoethanol were added to the growth medium used for RAW 264.7 macrophages. […]
# After appropriate treatments, protein lysates were prepared by using RIPA buffer supplemented with phosphatase and protease inhibitors (Thermo Fisher Scientific). […] Western blots were performed according to standard methods and quantified using densitometry using Image Studio Lite software from LI-COR Biosciences.
# S1P = experiment: S1P, sphingosine and ceramides by HPLC/MS/MS in hPASMC; assay type: cell-based, human
# Description: as §1
# Collected cells were rinsed with PBS, pelleted and frozen at minus 80° Celsius. Sphingolipids extraction and analysis is carried out at the Medical University of South Carolina (MUSC) core facility using eight-point calibration curves generated for each target analyte by High Performance Liquid Chromatography-Tandem Mass Spectrometry (HPLC/MS/MS) system operating in positive multiple reaction-monitoring (MRM) mode engaging a gradient elution. Sphingolipids are normalized to inorganic phosphate levels determined from the Bligh & Dyer lipid extraction method. Biological samples were from different passage numbers and on different days.
# as §3
# Collected cells were rinsed with PBS, pelleted. […] Sphingolipids were normalized to inorganic phosphate levels in PASMC which was determined from the Bligh & Dyer lipid extraction method. […]
molecule,measurement,setting,value
"EMAP II: 6x-His tagged recombinant EMAP II, cleaved C-terminal peptide of AIMP1 (SEQ ID NO: 2), pro-inflammatory cytokine (protein) IAGSADSKPIDVSRLDLRIGCIITARKHPDADSLYVEEVDVGEIAPRTVVSGLVNHVPLEQMQNRMVILLCNLKPAKMRGVLSQAMVMCASSPEKIEILAPPNGSVPGDRITFDAFPGEPDKELNPKKKIWEQIQPDLHTNDECVATYKGVPFEVKGKGVCRAQTMSNSGIK",EGR1 expression in whole cell lysates,EGR1; 1 to 2 hours following EMAP II,significant upregulation
same,upregulation of nuclear expression of EGR1,"EGR1; EMAP II 2 μg/mL, at 2 hours",9 fold
same,induction of SphK1 transcription compared to control,SphK1; EMAP II treated macrophages,about 4 times
same,time of peak SphK1 transcription after EMAP II stimulation,SphK1; macrophages,3 h
same,STAT3 activation (pSTAT3),pSTAT3 (Y705),induced STAT3 activation
same,earliest time pERK1/2 reached significance,pERK1/2,3 minutes
same,time of pERK1/2 peak,pERK1/2,3 minutes
same,ERK1/2 phosphorylation (pERK1/2),pERK1/2; 24-hour time course,bi-modal ERK1/2 activation; also recorded: induced pERK1/2
same,extracellular S1P compared to control,"S1P; SMCs growth media, 1 hour of EMAP II",elevation; also recorded: elevated
same,cellular sphingosine and ceramide levels,"S1P; SMCs, EMAP II 0-24 hours",depreciation throughout the time; also recorded: decreasing levels over time
same,cellular S1P levels (HPLC/MS/MS),"S1P; SMCs, EMAP II 0-24 hours, normalized against inorganic phosphates",bi-modal elevation
